According to patent publication US20150065556A1, “THERAPEUTIC TARGETS FOR MITOCHONDRIAL DISORDERS” (Whitehead Institute for Biomedical Research, priority 2013, published 2015):

Columns and labels:
protein zyg-11 homolog B [1] = target: protein zyg-11 homolog B (UniProt Q9C0D3); assay: IP-MS, FLAG-OMP25TM bait (control)
[2] = target: UDP-glucose: glycoprotein glucosyltransferase 1 (UniProt Q9NYU2); assay: IP-MS, FLAG-OMP25TM bait (control)
[3] = target: ATP synthase subunit alpha (UniProt P25705); assay: IP-MS, FLAG-OMP25TM bait (control)
[4] = target: ATP synthase subunit d, mitochondrial isoform a (UniProt O75947); assay: IP-MS, FLAG-OMP25TM bait (control)
[5] = target: 60 kDa heat shock protein, mitochondrial (UniProt P10809); assay: IP-MS, FLAG-OMP25TM bait (control)
[6] = target: ATP synthase subunit b, mitochondrial precursor (UniProt P24539); assay: IP-MS, FLAG-OMP25TM bait (control)
[7] = target: ATP synthase subunit g, mitochondrial (UniProt O75964); assay: IP-MS, FLAG-OMP25TM bait (control)
[8] = target: ATP synthase subunit O, mitochondrial precursor (UniProt P48047); assay: IP-MS, FLAG-OMP25TM bait (control)
[9] = target: ATPase inhibitor, mitochondria; isoform 1 (UniProt Q9UII2); assay: IP-MS, FLAG-OMP25TM bait (control)
[10] = target: ATP synthase subunit beta (UniProt P06576); assay: IP-MS, FLAG-OMP25TM bait (control)
[11] = target: ATP synthase subunit gamma, isoform L (UniProt P36542); assay: IP-MS, FLAG-OMP25TM bait (control)
[12] = target: mitochondrial-processing peptidase subunit alpha (UniProt Q10713); assay: IP-MS, FLAG-OMP25TM bait (control)
[13] = target: mitochondrial-processing peptidase subunit beta (UniProt O75439); assay: IP-MS, FLAG-OMP25TM bait (control)
[14] = target: ornithine aminotransferase (UniProt P04181); assay: IP-MS, FLAG-OMP25TM bait (control)
protein zyg-11 homolog B [15] = target: protein zyg-11 homolog B (UniProt Q9C0D3); assay: IP-MS with Flag tagged ATPIF1 as bait, no antimycin
[16] = target: UDP-glucose: glycoprotein glucosyltransferase 1 (UniProt Q9NYU2); assay: as above
[17] = target: ATP synthase subunit alpha (UniProt P25705); assay: as above
[18] = target: ATP synthase subunit d, mitochondrial isoform a (UniProt O75947); assay: as above
[19] = target: 60 kDa heat shock protein, mitochondrial (UniProt P10809); assay: as above
[20] = target: ATP synthase subunit b, mitochondrial precursor (UniProt P24539); assay: as above
[21] = target: ATP synthase subunit g, mitochondrial (UniProt O75964); assay: as above
[22] = target: ATP synthase subunit O, mitochondrial precursor (UniProt P48047); assay: as above
[23] = target: ATPase inhibitor, mitochondria; isoform 1 (UniProt Q9UII2); assay: as above
[24] = target: ATP synthase subunit beta (UniProt P06576); assay: as above
[25] = target: ATP synthase subunit gamma, isoform L (UniProt P36542); assay: as above
[26] = target: mitochondrial-processing peptidase subunit alpha (UniProt Q10713); assay: as above
[27] = target: mitochondrial-processing peptidase subunit beta (UniProt O75439); assay: as above
[28] = target: ornithine aminotransferase (UniProt P04181); assay: as above

ATP synthase subunit gamma, isoform L, sequence (P36542 26-298): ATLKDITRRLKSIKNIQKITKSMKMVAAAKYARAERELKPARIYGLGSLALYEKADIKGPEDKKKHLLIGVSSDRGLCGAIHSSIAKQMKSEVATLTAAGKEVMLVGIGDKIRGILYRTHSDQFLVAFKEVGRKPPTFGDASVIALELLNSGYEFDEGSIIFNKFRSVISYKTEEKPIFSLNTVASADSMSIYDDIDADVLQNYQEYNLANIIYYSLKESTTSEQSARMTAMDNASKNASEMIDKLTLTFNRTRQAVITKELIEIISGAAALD
ATP synthase subunit d, mitochondrial isoform a, sequence (O75947 2-161): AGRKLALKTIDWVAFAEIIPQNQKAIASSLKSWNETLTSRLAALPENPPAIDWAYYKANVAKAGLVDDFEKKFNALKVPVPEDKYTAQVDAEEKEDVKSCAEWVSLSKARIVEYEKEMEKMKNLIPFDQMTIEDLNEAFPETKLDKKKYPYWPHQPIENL
protein zyg-11 homolog B, sequence (Q9C0D3 whole entry): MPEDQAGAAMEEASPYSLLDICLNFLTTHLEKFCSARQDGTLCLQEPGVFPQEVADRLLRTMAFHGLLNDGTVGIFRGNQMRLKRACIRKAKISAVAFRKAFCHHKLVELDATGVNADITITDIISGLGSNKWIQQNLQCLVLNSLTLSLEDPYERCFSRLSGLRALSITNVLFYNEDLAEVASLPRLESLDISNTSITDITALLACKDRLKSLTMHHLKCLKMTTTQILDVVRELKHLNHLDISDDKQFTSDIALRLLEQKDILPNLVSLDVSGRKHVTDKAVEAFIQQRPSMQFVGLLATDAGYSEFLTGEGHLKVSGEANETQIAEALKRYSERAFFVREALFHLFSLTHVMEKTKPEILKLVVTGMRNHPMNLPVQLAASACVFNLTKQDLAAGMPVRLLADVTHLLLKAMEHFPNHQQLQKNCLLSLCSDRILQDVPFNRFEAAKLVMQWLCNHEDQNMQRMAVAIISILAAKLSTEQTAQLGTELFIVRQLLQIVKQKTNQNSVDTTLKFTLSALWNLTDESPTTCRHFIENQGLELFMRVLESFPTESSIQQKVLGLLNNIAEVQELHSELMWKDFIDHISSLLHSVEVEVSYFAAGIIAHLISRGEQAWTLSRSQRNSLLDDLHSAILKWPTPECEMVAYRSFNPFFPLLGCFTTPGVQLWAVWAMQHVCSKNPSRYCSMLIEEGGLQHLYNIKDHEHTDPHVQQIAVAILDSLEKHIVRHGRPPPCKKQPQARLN
ATP synthase subunit g, mitochondrial, sequence (O75964 2-103): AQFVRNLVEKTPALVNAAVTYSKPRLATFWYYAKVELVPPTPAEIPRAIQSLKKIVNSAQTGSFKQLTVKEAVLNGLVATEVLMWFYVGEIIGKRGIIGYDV
ATP synthase subunit alpha, sequence (P25705 44-553): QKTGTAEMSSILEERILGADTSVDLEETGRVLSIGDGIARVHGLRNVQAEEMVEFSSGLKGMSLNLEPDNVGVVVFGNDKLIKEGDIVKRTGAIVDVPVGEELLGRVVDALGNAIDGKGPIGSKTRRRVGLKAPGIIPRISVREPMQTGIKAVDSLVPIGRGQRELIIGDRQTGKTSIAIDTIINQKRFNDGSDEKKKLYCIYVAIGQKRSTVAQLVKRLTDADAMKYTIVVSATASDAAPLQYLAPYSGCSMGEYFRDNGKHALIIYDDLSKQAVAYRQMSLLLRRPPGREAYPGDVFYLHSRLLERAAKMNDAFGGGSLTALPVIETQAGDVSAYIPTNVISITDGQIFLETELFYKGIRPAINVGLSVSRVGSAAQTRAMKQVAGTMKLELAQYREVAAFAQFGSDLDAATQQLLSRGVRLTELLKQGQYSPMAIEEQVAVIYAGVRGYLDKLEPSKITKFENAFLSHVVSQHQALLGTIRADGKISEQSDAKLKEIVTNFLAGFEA
ornithine aminotransferase, sequence (P04181 26-439 limits assumed): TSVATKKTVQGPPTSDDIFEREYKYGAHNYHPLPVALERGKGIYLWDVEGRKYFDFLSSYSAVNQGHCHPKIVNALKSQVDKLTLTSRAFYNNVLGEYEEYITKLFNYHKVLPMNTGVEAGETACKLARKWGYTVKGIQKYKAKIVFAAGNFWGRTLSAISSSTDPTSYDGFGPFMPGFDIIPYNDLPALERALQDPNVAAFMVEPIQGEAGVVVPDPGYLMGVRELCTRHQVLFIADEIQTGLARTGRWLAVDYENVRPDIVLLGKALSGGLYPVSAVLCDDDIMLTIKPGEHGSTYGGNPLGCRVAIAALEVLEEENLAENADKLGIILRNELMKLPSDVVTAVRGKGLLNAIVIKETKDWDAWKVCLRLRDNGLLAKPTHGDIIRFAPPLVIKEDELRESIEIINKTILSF
ATP synthase subunit beta, sequence (P06576 48-529): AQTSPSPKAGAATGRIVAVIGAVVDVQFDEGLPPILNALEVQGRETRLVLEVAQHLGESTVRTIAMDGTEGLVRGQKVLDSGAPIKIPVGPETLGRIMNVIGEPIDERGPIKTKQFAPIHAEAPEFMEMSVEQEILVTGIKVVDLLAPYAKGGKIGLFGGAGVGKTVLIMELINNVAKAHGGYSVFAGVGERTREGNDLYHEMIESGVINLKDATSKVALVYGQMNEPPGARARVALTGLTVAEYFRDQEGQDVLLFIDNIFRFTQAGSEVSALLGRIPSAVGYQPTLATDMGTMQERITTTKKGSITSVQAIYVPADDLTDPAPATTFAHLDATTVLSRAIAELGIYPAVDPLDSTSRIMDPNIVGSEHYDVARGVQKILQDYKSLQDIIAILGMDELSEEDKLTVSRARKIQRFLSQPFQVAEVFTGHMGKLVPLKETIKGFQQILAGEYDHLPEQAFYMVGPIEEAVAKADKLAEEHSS
mitochondrial-processing peptidase subunit beta, sequence (O75439 44-489 limits assumed): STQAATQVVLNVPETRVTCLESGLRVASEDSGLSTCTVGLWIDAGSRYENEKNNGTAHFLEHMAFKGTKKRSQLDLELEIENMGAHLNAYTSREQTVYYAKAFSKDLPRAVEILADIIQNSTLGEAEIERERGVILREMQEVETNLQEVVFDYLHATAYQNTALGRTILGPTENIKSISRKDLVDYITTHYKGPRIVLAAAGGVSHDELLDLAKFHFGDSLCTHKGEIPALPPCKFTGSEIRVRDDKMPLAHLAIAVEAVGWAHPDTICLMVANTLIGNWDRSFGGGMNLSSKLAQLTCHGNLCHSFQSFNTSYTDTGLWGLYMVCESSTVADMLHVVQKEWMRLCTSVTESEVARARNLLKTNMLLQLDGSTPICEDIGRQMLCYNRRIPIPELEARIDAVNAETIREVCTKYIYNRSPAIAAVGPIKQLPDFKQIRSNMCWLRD
ATP synthase subunit O, mitochondrial precursor, sequence (P48047 24-213 limits assumed): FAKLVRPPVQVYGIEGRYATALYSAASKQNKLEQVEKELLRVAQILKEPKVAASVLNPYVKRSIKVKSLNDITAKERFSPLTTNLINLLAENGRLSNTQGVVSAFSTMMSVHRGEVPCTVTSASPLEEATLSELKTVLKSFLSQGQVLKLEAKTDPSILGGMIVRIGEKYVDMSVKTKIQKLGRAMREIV
60 kDa heat shock protein, mitochondrial, sequence (P10809 27-573 limits assumed): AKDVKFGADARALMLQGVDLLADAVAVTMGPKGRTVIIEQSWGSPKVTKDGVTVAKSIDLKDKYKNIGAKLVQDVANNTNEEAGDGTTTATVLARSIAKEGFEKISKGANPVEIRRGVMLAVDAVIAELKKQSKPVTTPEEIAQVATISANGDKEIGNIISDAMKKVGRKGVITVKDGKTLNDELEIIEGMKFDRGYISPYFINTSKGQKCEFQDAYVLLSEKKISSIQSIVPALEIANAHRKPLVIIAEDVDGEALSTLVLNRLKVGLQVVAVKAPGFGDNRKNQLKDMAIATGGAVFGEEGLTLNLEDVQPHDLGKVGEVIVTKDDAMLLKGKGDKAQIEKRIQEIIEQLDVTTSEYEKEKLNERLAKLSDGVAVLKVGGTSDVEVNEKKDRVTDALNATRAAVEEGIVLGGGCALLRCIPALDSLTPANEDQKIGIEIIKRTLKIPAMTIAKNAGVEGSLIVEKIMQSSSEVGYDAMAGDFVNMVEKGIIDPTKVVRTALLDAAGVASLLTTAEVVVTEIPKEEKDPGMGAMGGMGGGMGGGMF
ATPase inhibitor, mitochondria; isoform 1, sequence (Q9UII2 26-106): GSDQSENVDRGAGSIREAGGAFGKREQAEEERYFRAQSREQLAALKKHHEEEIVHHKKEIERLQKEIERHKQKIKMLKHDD
mitochondrial-processing peptidase subunit alpha, sequence (Q10713 34-525 limits assumed): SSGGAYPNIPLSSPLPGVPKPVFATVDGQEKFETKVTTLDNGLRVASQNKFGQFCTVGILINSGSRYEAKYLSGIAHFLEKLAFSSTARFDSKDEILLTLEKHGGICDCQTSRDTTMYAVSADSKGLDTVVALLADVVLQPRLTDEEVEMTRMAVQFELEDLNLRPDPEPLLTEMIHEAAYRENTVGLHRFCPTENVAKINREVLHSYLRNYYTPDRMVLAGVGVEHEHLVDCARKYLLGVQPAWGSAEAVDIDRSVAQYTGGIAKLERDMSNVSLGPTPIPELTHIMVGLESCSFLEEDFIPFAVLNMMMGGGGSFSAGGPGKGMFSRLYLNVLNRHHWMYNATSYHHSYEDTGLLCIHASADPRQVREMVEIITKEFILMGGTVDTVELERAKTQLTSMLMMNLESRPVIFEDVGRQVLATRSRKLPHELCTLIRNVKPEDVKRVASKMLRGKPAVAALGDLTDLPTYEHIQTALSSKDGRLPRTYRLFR
ATP synthase subunit b, mitochondrial precursor, sequence (P24539 43-256 limits assumed): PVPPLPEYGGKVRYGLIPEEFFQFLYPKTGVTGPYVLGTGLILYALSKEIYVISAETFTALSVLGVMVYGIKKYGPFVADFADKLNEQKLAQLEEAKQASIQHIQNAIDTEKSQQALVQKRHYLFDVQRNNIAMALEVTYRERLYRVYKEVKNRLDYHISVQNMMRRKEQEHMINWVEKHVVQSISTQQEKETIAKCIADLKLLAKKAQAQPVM

In the case of FLAG-OMP25TM, the IP-MS count (kind of count not given) (protein zyg-11 homolog B [1]) is reported as 0, the IP-MS count (kind of count not given) [2] is reported as 5 and the IP-MS count (kind of count not given) [3] is reported as 11. For the same substance, the IP-MS count (kind of count not given) [4] was 1, the IP-MS count (kind of count not given) [5] was 4 and the IP-MS count (kind of count not given) [6] was 3. For the same substance, the IP-MS count (kind of count not given) [7] was 0, the IP-MS count (kind of count not given) [8] was 3 and the IP-MS count (kind of count not given) [9] was 3. It also gave an IP-MS count (kind of count not given) [10] of 7, an IP-MS count (kind of count not given) [11] of 2 and an IP-MS count (kind of count not given) [12] of 0. The IP-MS count (kind of count not given) [13] was 0 and the IP-MS count (kind of count not given) [14] was 1.
Substance “Flag tagged ATPIF1 (from UniProt Q9UII2 26-106)” has an IP-MS count (kind of count not given) (protein zyg-11 homolog B [15]) of 19, an IP-MS count (kind of count not given) [16] of 15 and an IP-MS count (kind of count not given) [17] of 381. It also gave an IP-MS count (kind of count not given) [18] of 26, an IP-MS count (kind of count not given) [19] of 28 and an IP-MS count (kind of count not given) [20] of 44. It also gave an IP-MS count (kind of count not given) [21] of 14, an IP-MS count (kind of count not given) [22] of 47 and an IP-MS count (kind of count not given) [23] of 175. It also gave an IP-MS count (kind of count not given) [24] of 375, an IP-MS count (kind of count not given) [25] of 59 and an IP-MS count (kind of count not given) [26] of 14. For the same substance, the IP-MS count (kind of count not given) [27] was 17 and the IP-MS count (kind of count not given) [28] was 16.
